# Measured values published in the DeepSol protein solubility set.
# Assay: soluble on expression in E. coli; label from the status in PepcDB or PDB records
row,Sequence,soluble on expression in E. coli
1,MGGIARLYGDSALAHFSQAHVCVVGVGGVGSWAVEALARTGIGRLTLIDLDNVAESNVNRQLHALTGDFGKAKVTALRERITQINPQCEVFEIEDFVTEDNLPEYFGKGFDFVIDAIDQVRVKAAMAAYFVERKQPFVLSGGAGGQKNPALIQTADLSRVTHDPLLANLRYTLRKRYGFSRDTKANMRVPCVYSTENIVPPQSREACSADAAPQGLSCAGYGASMLVTASFGLYCAQAAVEHIADKKLEHHHHHH,not soluble
2,MSGRYNMNIILGATGQVGSMLVDNLLGKGQPVRAVVRDGLKAQGLKNKGVEVKIADYLDVEALKKAFQGGSSVFLLTPENPESENFINEIQRIMSNYREAVLSSGISKIVGLSSMGAQHKSGTGNLMASYMLEHAFSDLEIEQVFVRPAYYFSNWLGYLELVREYGILPTFFPPELELPMIAPPDVAGFLSDVMTCKTQQERIYEISGPHDYSSSDIAKIFGDVLNKNVTLQQVLPEEWENTLIQAGFSKDGTRNLMLMTKAVIDGKTKNETTNRLRFSTNFKNYLQSVILNMS,not soluble
3,PDATSKKVVPLGVEIYEINGPFFFGVADRLKGVLDVIEETPKVFILRMRRVPVIDATGMHALWEFQESCEKRGTILLLSGVSDRLYGALNRFGFIEALGEERVFDHIDKALAYAKLLVETAEERGRES,soluble
4,MNIENPAPILDQDPYVQAYPETRAFWEAAAQGRFVLPRCRDCGQSHWYPRGLCPLCGSTALEWQDAAGTGTLYSYSVMRAAPQPYAIAYVQLAEGPLVLTNIVDSDLERLRIGQPVRVAFQRTQEGRSAPVFVALAD,not soluble
5,MKKVILFMAGILASMMLNAQSRWSVTPEAGLVVNKENEGTSVTLGFKAGAGVLYQLKEGVGKKPSFGLKSGVYILMQKGGYHPMSWGNISTGGGFSMDYEKTNVESTRYYLQLPVMAHWGFKLCDDVRLKLAVGPYVAVGIGGRTNAYVSSSKYNIDEETGVGQYEYRNDYYRFGTFKGKTVNEEFGFEASPRLDWGGTASVGIAVKRISFTVGYDLAWGKYNKEQNDLRIRNHMVSFTSGYSF,not soluble
6,MGSDKIHHHHHHMYGVMIMKLKTNVFHFTPFSKKQLQVLTWWVNPSTKDSEAIICDGSVRAGKTVIMSLSYVMWAMHTFNGQQLGMAGKTIGSFRRNVLRPLKQMLAGRGYKVIDHRTDNMFEVVKNGKANYFFIFGGKDEASQDLVQGLTAAGFFFDEVALMPQSFVNQATARVSVSGGKYWFNMNPEGPYHWFKLNWIDDLKGKRALRIHFRMEDNPSLSEDVIGRYKRNYSGVFYQRYILGLWVMSEGVIYDNFNRETMVVSEPPGRCTKYYVSVDYGTQNPTVFLLWGFYNGVWYCLKEYYYDGRHSARQKTDDQYANDLDEFVGNINARIIIDPSAASFIAVLRNRHYRIIRADNDVLNGIRETQSAMNNGLIKFTDNLPNLFKELASYIWDDKASSNGEDKVIKEHDHAMDSMRYFVYMVLRHNNKAKVIKNKYF,not soluble
7,MIMVSGCQQQKEETPFYYGTWDEGRAPGPTDGVKSATVTFTEDEVVETEVMEGRGEVQLPFMAYKVISQSTDGSIEIQYLGPYYPLKSTLKRGENGTLIWEQNGQRKTMTRIESKTGREEKDEKSKSLEHHHHHH,soluble
8,MSLSSCEVLTSLGERMILIRGLTRVITFDDQERELEDADILIDGPKIVAVGKDLSDRSVSRTIDGRGMIALPGLINSHQHLYEGAMRAIPQLERVTMASWLEGVLTRSAGWWRDGKFGPDVIREVARAVLLESLLGGITTVADQHLFFPGATADSYIDATIEAATDLGIRFHAARSSMTLGKSEGGFCDDLFVEPVDRVVQHCLGLIDQYHEPEPFGMVRIALGPCGVPYDKPELFEAFAQMAADYDVRLHTHFYEPLDAGMSDHLYGMTPWRFLEKHGWASDRVWLAHAVVPPREEIPEFADAGVAIAHLIAPDLRMGWGLAPIREYLDAGITVGFGTTGSASNDGGNLLGDLRLAALAHRPADPNEPEKWLSARELLRMATRGSAECLGRPDLGVLEEGRAADIACWRLDGVDRVGVHDPAIGLIMTGLSDRASLVVVNGQVLVENERPVLADLERIVANTTALIPKNLEGHHHHHH,not soluble
9,MYQASCLFYFMTPVFFLLSTYPRNLLIGDSSTAFTKELIAKMNEVTNSAESTSSKRPGRPRKDGHDEKIIDATLRLIDSNRPVTVNAVVKESGVSRAAVYRRWPGLVDLVAEALDAGRAPVEIDTSGDIKETLIDGLFTNQAKTTGVSYPRQRFRKRLELVMSDQELQLAAAALEHHHHHH,not soluble
